Experimental data from the DeepSol protein solubility set.

Assay: soluble on expression in E. coli; label from the status in PepcDB or PDB records

Sequence | soluble on expression in E. coli
MSDMEKPWKEEEKREVLAGHARRQAPQAVDKGPVTGDQRISVTVVLRRQRGDELEAHVERQAALAPHARVHLEREAFAASHGASLDDFAEIRKFAEAHGLTLDRAHVAAGTAVLSGPVDAVNQAFGVELRHFDHPDGSYRSYVGDVRVPASIAPLIEAVLGLDTRPVARPHFRLRRRAEGEFEARSQSAAPTAYTPLDVAQAYQFPEGLDGQGQCIAIIELGGGYDETSLAQYFASLGVSAPQVVSVSVDGATNQPTGDPNGPDGEVELDIEVAGALAPGAKIAVYFAPNTDAGFLNAITTAVHDPTHKPSIVSISWGGPEDSWAPASIAAMNRAFLDAAALGVTVLAAAGDSGSTDGEQDGLYHVDFPAASPYVLACGGTRLVASAGRIERETVWNDGPDGGSTGGGVSRIFPLPSWQERANVPPSANPGAGSGRGVPDVAGNADPATGYEVVIDGETTVIGGTAAVAPLFAALVARINQKLGKPVGYLNPTLYQLPPEVFHDITEGNNDIANRARIYQAGPGWDPCTGLGSPIGIRLLQALLPSASQAQP | soluble
NETEATLPVFTLEQVAEHHSPDDCWMAIHGKVYDLTPYVPNHPGPAGMMLVWCGQESTEAWETKSYGEPHSSLAARLLQRYLIGTLEEIT | soluble
GMHHQRKTHVDNNIAAVELAKAYRLLNHGPTVLVSARSQGIDNVMAAAWCCALDFAPPKLTVVLDKMTKTREFIEQSGMFVIQVPTVAQLQLTHRVGSQSLADDANKLLNCGVELFEMAGHDLPFVAGCSAWLACKLIPEPNNQLQYDLFIAEVIGAWADTQVFNHGHWHFDTAPADKRSLHYIAGGQFYAIGESFNAD | soluble
SRRLEDLHPDLQPLAHSFLRRCTDAGLDVLIYCTYRSGAEQDQLYAQGRKGSPGPIVTNARAGQSAHNFTIQNRPAARAFDAVPMVGGKPQWDQKHPHWQIMGRIGTELG | not soluble
MGSDKIHHHHHHMVEMNFKVDAFEGPLDLLLHLIGQLEVDIYDIPMAEITDQYMEFVHTMQEMELDVASEYLVMAATLLAIKSKMLLPKQELEIDYDTLEEEEDPRDALVEKLMEYKRFKEAAKELKEKEAERSFYFSKPPMDLAEYDDGTKVAELDVSLNDMLSAFNKMLRRKKLNKPLHTRITTQEISIDQRMDSVLEKLNLQVNHRLRFDELFEEQTKEQLVVTFLALLELMKRKLVEVEQAESFADLYVQGKGEEIS | not soluble
MTVYHFVGIKGTGMSPLAQILHDNGYTVQGSDIEKFIFTQTALEKRNITILPFSAENIKPGMTVIAGNAFPDTHPEIEKAMSEGIPVIRYHKFLGDYMKKFTSVAVTGAHGKTSTTGLLAHVIQNAKPTSFLIGDGTGQGNENSEYFVFEACEYRRHFLSYQPDYAIMTNIDFDHPDYFSSIDDVFDAFQEMALQVNKGIIACGDDEHLPKIHANVPVVYYGTGEENDFQARNIVKSTEGTTFDVFVRNTFYDTFYIPAYGHHNVLNSLAVIALCHYEEIDSSIIKHALKSFGGVKRRFNEKQLGDQVLIDDYAHHPTEIKVTIEAARQKYPDREIVAVFQPHTFTRTQQFLDEFAESLSGADCVYLCDIFGSARENAGKLTIGDLQGKIHNAKLIEEDDTSVLKAHDKAVLIFMGAGDIQKYMRAYENVMA | not soluble
MITILGPTACGKTRLAVSLAYRLETEIISADSRQIYRGMDIGTGKDLADYQVGGTTIPCHLIDIRPAGDKYNLFAYQHDFHQAYASILARGMDPILCGGTGMYIEAVLKGYHLPDVPPNPTLRDRLQGKSLTELTLILAAYGPLHNKTDVDSAQRAIRAIEIAEYIKNNPVESTEFPPIDSLIIGLDLDRDTRRKRITDRLHARMHEGMIEEVKGLLDSGIPAEDLIYYGLEYKFVTLYLTGQTDYESMFTGLETAIHQFAKRQMTWFRGMERRGFLIHWIDALLPADEQCEAVMKLYGANGLEHHHHHH | soluble
MAHHHHHHMPPPPPAPPPPPPPPPPPKATEGNSSSTVGGAASALFAEIRQGGDNITSRLRHVTDDQKAYKQNIQHGAVDFSDLDAKKAEAEAKRQQKQKQPETTAAEEPVTRLEGDKRWVVKHHKGTPSEPCKVTLEDVNMRHAVHIHGCDNTFVEVKGKVNTVSVVSCNKAQVILESVVSALEVLKSDSVDVTVRRFVPTAMVEKSTSVNLFLMDVEEAPNTEIVTACSSAVNVNFPTVEDPTDILERPLPEQFVSRIVRDNRGKYKIETKPNEVA | soluble
